From patent US9518268B2, “Drought tolerant transgenic plants and method of making same” (PURDUE RESEARCH FOUNDATION, priority 2013, dated 2016) come the findings set out here.

“Also recorded” adds a separate entry of the source.

The assay deals with RD29B-LUC expression. The assay can be described thus: Reconstituted ABA signaling pathway, transient expression in wild-type (Col-0) protoplasts. The assay is classed as cell-based, Arabidopsis. As to conditions: for ABA-dependent induction of RD29B-LUC expression: co-transfected with ABI1, SnRK2.6 and ABF2, without or with 5 μM ABA, 4.5 h; for RD29B-LUC expression: SnRK2.6 and ABF2; for level of inhibition by PYL13 of the other PYL's activity: 2×PYL13 plasmid, ABI1, SnRK2.6, ABF2 co-expressed. On the procedure:
To test whether PYL13 can act as an ABA receptor, the ABA signaling pathway in wild-type protoplasts was reconstituted. Turning now to FIG. 1, wild-type (Col-0) protoplasts were used in both panels A and B. After transfection, the protoplasts were incubated for 4.5 hours under light in the absence of ABA (open bars) or in the presence of 5 μM ABA (closed bars). Error bars indicate s.e.m. (n=3). […] ZmUBQ-GUS was used as the internal control. […] Instead, the ABA signaling pathway was reconstituted by co-expression of PYLs, ABI1, SnRK2.6, and ABF2. […] Therefore, the response of other members of the PYL family would not predict the response of PYL13 expression or over-expression in plants.
PYL13 interacts with all clade A PP2Cs tested but binds most strongly to PP2CA. To investigate whether PYL13 inhibits PP2Cs in planta, PYL13 was co-expressed with all clade A PP2Cs in wild-type protoplasts, as shown in FIG. 4. Transfections of all PP2Cs together with SnRK2.6 and ABF2 inhibited RD29B-LUC expression to different degrees, see FIG. 4A, and the degree of inhibition was correlated with the intensity of interaction between PP2Cs and SnRK2.6 (Fujii et al., 2009). […] The ABA signaling pathway was reconstituted by co-expression of PYLs, PP2Cs, SnRK2.6, and ABF2. RD29B-LUC was used as the ABA-responsive reporter. ZmUBQ-GUS was used as the internal control. After transfection, protoplasts were incubated for 4.5 h under light in the absence of ABA (open bars) or in the presence of 5 μM ABA (closed bars). Error bars indicate s.e.m. (n=9).
To investigate the physiological significance of the binding between PYL13 and PYLs in vivo, PYL13 was co-expressed with one of the other PYLs, ABI1, SnRK2.6, and ABF2 in wild-type protoplasts. When the transfected PYL13 plasmid was 2-fold of that of the other PYLs, co-transfections with PYL13 decreased the activity of the ABA-responsive PYLs (FIG. 5E). […] ZmUBQ-GUS was used as the internal control. After transfection, protoplasts were incubated for 4.5 h under light in the absence of ABA (open bars) or in the presence of 5 μM ABA (closed bars). Error bars indicate s.e.m. (n=3).
The ABA signaling pathway was reconstituted by co-expression of PYL13, PYLs, ABI1, SnRK2.6, and ABF2. […] Error bars indicate s.e.m. (n=3). […] Without wishing to be bound by theory, PYL13 inhibition of other PYLs might result from direct interactions between PYL13 and other PYLs or from competition for the binding sites on PP2Cs.
Assays for transient expression in protoplasts were performed as described (Fujii et al., 2009). Leaf strips (0.5 mm) were cut from the middle part of second leaves using a razor blade (VWR SCIENTIFIC) and submerged in 15 mL of enzyme solution containing 20 mM MES, pH 5.7, 1.5% (w/v) cellulase R10 (YAKULT PHARMACEUTICAL INDUSTRY), 0.4% (w/v) macerozyme R10 (YAKULT PHARMACEUTICAL INDUSTRY), 0.4 M mannitol, 20 mM KCl, 10 mM CaCl2, 1 mM 2-mercaptoethanol, and 0.1% BSA. The leaves were vacuum infiltrated for 30 min and then incubated without shaking for 3 h in the dark at room temperature. The enzyme/protoplast solution was diluted with 15 mL of W5 solution (2 mM MES, pH 5.7, 154 mM NaCl, 125 mM CaCl2, and 5 mM KCl) and filtered with a 75-μm nylon mesh. Protoplasts were centrifuged at 100 g for 2 min in a 30-mL round-bottomed tube (SARSTEDT), resuspended in W5 solution, and rested for 30 min at room temperature.
Before transfection, protoplasts were changed into MMg solution (4 mM MES, pH 5.7, 0.4 M mannitol, and 15 mM MgCl2) to a final concentration of 2×10^5 cells per microliter. Protoplasts (100 μl) were gently and thoroughly mixed with the plasmid DNA mixture (less than 10 μl) and 110 μl of PEG solution (40% w/v PEG-4000, 0.2 M mannitol, and 100 mM CaCl2), incubated for 5 min, washed with 440 μl of W5 solution, and resuspended in 50 μl of WI solution (4 mM MES, pH 5.7, 0.5 M mannitol, and 20 mM KCl). After transfection, protoplasts were incubated in WI solution without ABA or with 5 μM ABA under light. […]

Consider “PYL2: Arabidopsis thaliana PYL family ABA receptor protein PYL2, AT2G26040”, for which the “ABA-dependent induction of RD29B-LUC expression” value is on record as “enabled the expression; also recorded: restored RD29B-LUC expression”.

B1: PYL13: Arabidopsis thaliana PYR/PYL/RCAR family protein PYL13, SEQ ID NO: 1 (protein, listed as Arabidopsis thaliana)
chain: MESSKQKRCRSSVVETIEAPLPLVWSILRSFDKPQAYQRFVKSCTMRSGGGGGKGGEGKGSVRDVTLVSGFPADFSTERLEELDDESHVMVVSIIGGNHRLVNYKSKTKVVASPEDMAKKTVVVESYVVDVPEGTSEEDTIFFVDNIIRYNLTSLAKLTKKMMK
Turning to B1, the “ABA-dependent induction of RD29B-LUC expression” value is “did not enable the expression”. The RD29B-LUC expression result (co-transfection with ABI1, ABI2, HAB1, HAB2, or AHG1) is on record as “did not enable RD29B-LUC expression”. In addition, the RD29B-LUC expression result (co-transfection with PP2CA, HAI2, or HAI3) was “enabled the ABA-dependent induction”. In addition, the “level of inhibition by PYL13 of the other PYL's activity” value (with PYL1) is on record as 67%. The “level of inhibition by PYL13 of the other PYL's activity” value (with PYL2) is on record as 27%.
